Consider 1 molecule from US20120100561A1 (published 2012).

The test addresses T1, Flag-PKN3 wt (N-terminal Flag epitope-tagged full-length kinase active human PKN3) (human, UniProt Q6P5Z2 1-889).
T1 construct: Expressed from pcDNA3 in HEK293T or PC3 cells and pulled down with anti-Flag M2 resin; The kinase-dead version carries K588R; also called Flag-tagged PKN3; kinase-active form of PKN3
Put plainly: anti-Flag M2 co-immunoprecipitation from transfected HEK293T cells, Western blot. As to the method: Thus, PKN3, RhoC and PDK1 form a ternary complex (“PPRC complex.”)
For immunoprecipitations with Flag (FIG. 4B), HEK293T cells (5×10⁵ cells/10-cm tissue culture dish) were either singly transfected or cotransfected with the indicated plasmids (Flag-PKN3 wt [full-length kinase active], Flag-PKN3 kd [kinase-dead PKN3], Myc-RhoA, Myc-RhoB or Myc-RhoC) by FUGENE® transfection reagent. After 6 hours of incubation at 37° C. in a 5% CO₂ incubator, cells were washed twice in serum-free Dulbecco's modified Eagle's medium (DMEM), and fresh medium (DMEM, 10% fetal bovine serum) was added to the cells for a further 48 h of incubation. Cells were washed with phosphate-buffered saline (PBS) and lysed in 0.5 ml of lysis buffer (50 mM Tris-HCl [pH 7.5], 150 mM NaCl, 10 mM β-glycerolphosphate, 10% glycerol, 1% Triton X-100, 1 mM Na₃VO₄, 1 mM NaF, and protease inhibitors [Roche Molecular Biochemicals]) for 30 minutes on ice. […] The beads were then washed three times with TBS buffer (50 mM Tris-HCl [pH 7.5], 150 mM NaCl), and bound proteins were eluted with TBS buffer containing 10% glycerol, 1 mM DTT and 200 μg of Flag peptide (Sigma)/ml. The bound products were visualized by Western blot analysis (FIG. 4).
Background: In western blotting, separated proteins are transferred to a membrane and probed.

T1 sequence (Q6P5Z2 other isoform, or with tags, fused parts or gaps limits assumed): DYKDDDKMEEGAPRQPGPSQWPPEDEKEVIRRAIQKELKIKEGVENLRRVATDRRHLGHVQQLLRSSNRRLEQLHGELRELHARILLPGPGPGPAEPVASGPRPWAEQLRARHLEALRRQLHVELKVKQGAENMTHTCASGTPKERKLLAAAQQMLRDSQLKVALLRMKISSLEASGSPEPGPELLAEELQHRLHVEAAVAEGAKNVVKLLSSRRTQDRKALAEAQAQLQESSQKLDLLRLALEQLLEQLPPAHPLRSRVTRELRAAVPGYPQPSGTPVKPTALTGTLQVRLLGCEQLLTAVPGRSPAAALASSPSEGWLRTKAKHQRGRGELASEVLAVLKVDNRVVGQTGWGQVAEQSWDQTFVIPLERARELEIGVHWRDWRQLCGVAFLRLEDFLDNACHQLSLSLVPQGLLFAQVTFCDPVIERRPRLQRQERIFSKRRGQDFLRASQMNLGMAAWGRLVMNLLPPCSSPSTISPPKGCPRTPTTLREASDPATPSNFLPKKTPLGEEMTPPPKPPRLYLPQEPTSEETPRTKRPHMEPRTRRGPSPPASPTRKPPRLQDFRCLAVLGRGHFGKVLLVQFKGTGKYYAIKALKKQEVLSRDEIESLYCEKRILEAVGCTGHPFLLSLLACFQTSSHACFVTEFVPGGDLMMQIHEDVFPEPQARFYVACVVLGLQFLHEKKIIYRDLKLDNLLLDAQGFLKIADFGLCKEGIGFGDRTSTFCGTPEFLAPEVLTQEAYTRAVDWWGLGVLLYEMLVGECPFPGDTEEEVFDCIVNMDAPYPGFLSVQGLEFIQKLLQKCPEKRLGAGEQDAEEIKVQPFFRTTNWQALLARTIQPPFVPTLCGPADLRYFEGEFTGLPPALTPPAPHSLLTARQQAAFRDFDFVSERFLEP

B1: phosphoinositide-dependent kinase-1 (PDK1) (enzyme, UniProt O15530 1-556, looked up)
chain: MARTTSQLYDAVPIQSSVVLCSCPSPSMVRTQTESSTPPGIPGGSRQGPAMDGTAAEPRPGAGSLQHAQPPPQPRKKRPEDFKFGKILGEGSFSTVVLARELATSREYAIKILEKRHIIKENKVPYVTRERDVMSRLDHPFFVKLYFTFQDDEKLYFGLSYAKNGELLKYIRKIGSFDETCTRFYTAEIVSALEYLHGKGIIHRDLKPENILLNEDMHIQITDFGTAKVLSPESKQARANSFVGTAQYVSPELLTEKSACKSSDLWALGCIIYQLVAGLPPFRAGNEYLIFQKIIKLEYDFPEKFFPKARDLVEKLLVLDATKRLGCEEMEGYGPLKAHPFFESVTWENLHQQTPPKLTAYLPAMSEDDEDCYGNYDNLLSQFGCMQVSSSSSSHSLSASDTGLPQRSGSNIEQYIHDLDSNSFELDLQFSEDEKRLLLEKQAGGNPWHQFVENNLILKMGPVDKRKGLFARRRQLLLTEGPHLYYVDPVNKVLKGEIPWSQELRPEAKNFKTFFVHTPNRTYYLMDPSGNAHKWCRKIQEVWRQRYQSHPDAAVQ
notes: It co-precipitated with Flag-PKN3 from cell lysates
Take B1: the binding result is reported as “binds”.
